Like-named read-outs stand apart in the source and are kept apart here. Values belong to the substance of their own block, whether it stands above or below them.
Tests used:
CD28 (human) [1] = target: CD28 (human) (UniProt P10747); assay: flow cytometry, Jurkat cells (CD28)
human CTLA-4 (human) [2] = target: human CTLA-4 (human) (UniProt P16410); assay: flow cytometry, CHO cells stably expressing CTLA4
Target sequence in this assay (P16410 36-223): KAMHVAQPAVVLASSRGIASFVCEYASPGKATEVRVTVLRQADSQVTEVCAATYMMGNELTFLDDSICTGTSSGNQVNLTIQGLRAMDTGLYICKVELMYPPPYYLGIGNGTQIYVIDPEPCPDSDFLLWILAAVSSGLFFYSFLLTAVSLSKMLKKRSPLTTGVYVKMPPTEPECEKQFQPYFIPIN

PD-L1 (human) [3] = target: PD-L1 (human) (UniProt Q9NZQ7); assay: flow cytometry, CHO cells stably expressing PD-L1
Target sequence in this assay (Q9NZQ7 19-290): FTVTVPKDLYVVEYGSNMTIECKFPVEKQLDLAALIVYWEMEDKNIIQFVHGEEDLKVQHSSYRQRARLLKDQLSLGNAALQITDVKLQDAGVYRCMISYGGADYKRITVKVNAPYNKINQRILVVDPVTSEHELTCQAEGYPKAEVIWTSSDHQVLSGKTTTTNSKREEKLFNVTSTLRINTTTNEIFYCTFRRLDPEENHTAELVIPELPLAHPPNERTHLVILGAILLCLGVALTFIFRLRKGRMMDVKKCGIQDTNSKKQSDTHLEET

CD28 (human) [4] = target: CD28 (human) (UniProt P10747); assay: flow cytometry, Expi293F cells transfected with CD28
human CTLA-4 (human) [5] = target: human CTLA-4 (human) (UniProt P16410); assay: flow cytometry, Expi293F cells transfected with CTLA-4
PD-L1 (human) [6] = target: PD-L1 (human) (UniProt Q9NZQ7); assay: flow cytometry, Expi293F cells transfected with PD-L1
PD-L1 (human) [7] = target: PD-L1 (human) (UniProt Q9NZQ7); assay: flow cytometry, CHO cells stably expressing PD-L1; remark: listed apart in the source
Target sequence in this assay (Q9NZQ7 19-290): as above

human CTLA-4 (human) [8] = target: human CTLA-4 (human) (UniProt P16410); assay: flow cytometry, CHO cells stably expressing CTLA4; remark: listed apart in the source
Target sequence in this assay (P16410 36-223): as the sequence (P16410 36-223) above

[9] = target: CD28, endogenously expressed on Jurkat/IL2 reporter cells (human) (UniProt P10747); assay: flow cytometry on Jurkat/IL2 reporter cells (endogenous CD28), 33.3 nM Fc fusion, PE anti-human Fc
[10] = target: human PD-L1 (huPD-L1), on stably transduced CHO cells (human) (UniProt Q9NZQ7); assay: flow cytometry on CHO cells stably expressing huPD-L1, 33.3 nM Fc fusion, PE anti-human Fc
Sequence of human PD-L1 (huPD-L1), on stably transduced CHO cells (human) (Q9NZQ7 19-290): as the sequence (Q9NZQ7 19-290) above

PD-L1 (human) [11] = target: PD-L1 (human) (UniProt Q9NZQ7); assay: flow cytometry, CHO cells stably expressing PD-L1; remark: listed apart in the source
Target sequence in this assay (Q9NZQ7 19-290): as above

CD28 (human) [12] = target: CD28 (human) (UniProt P10747); assay: flow cytometry, Jurkat cells (CD28); remark: listed apart in the source
human CTLA-4 (human) [13] = target: human CTLA-4 (human) (UniProt P16410); assay: flow cytometry, CHO cells expressing CTLA4
Target sequence in this assay (P16410 36-223): as the sequence (P16410 36-223) above

[14] = target: human CTLA-4 (huCTLA4), on stably transduced CHO cells (human) (UniProt P16410); assay: flow cytometry on CHO cells stably expressing huCTLA4, 33.3 nM Fc fusion, PE anti-human Fc
Sequence of human CTLA-4 (huCTLA4), on stably transduced CHO cells (human) (P16410 36-223): as above

human CTLA-4 (human) [15] = target: human CTLA-4 (human) (UniProt P16410); assay: flow cytometry, CHO cells stably expressing CTLA4; remark: listed apart in the source
Target sequence in this assay (P16410 36-223): as above

CD28 (human) [16] = target: CD28 (human) (UniProt P10747); assay: flow cytometry, Jurkat cells (CD28); remark: listed apart in the source
PD-L1 (human) [17] = target: PD-L1 (human) (UniProt Q9NZQ7); assay: flow cytometry, CHO cells expressing PD-L1
Target sequence in this assay (Q9NZQ7 19-290): as the sequence (Q9NZQ7 19-290) above

CD28 (human) [18] = target: CD28 (human) (UniProt P10747)
PD-L1 (human) [19] = target: PD-L1 (human) (UniProt Q9NZQ7)
Target sequence in this assay (Q9NZQ7 19-290): as above

human CTLA-4 (human) [20] = target: human CTLA-4 (human) (UniProt P16410); assay: flow cytometry, CHO cells expressing huCTLA4
Target sequence in this assay (P16410 36-223): as the sequence (P16410 36-223) above

CD28 (human) [21] = target: CD28 (human) (UniProt P10747); assay: flow cytometry, Jurkat/IL2 reporter cells (endogenous CD28)
CD28 (human) [22] = target: CD28 (human) (UniProt P10747); remark: listed apart in the source
PD-L1 (human) [23] = target: PD-L1 (human) (UniProt Q9NZQ7); remark: listed apart in the source
Target sequence in this assay (Q9NZQ7 19-290 limits assumed): as the sequence (Q9NZQ7 19-290) above

PD-L1 (human) [24] = target: PD-L1 (human) (UniProt Q9NZQ7); assay: flow cytometry, MFI on PD-L1 cells over MFI on CD28 cells
Target sequence in this assay (Q9NZQ7 19-290): as above

Sequence of CD80 WT IgV-Fc (Fc fusion) (chain): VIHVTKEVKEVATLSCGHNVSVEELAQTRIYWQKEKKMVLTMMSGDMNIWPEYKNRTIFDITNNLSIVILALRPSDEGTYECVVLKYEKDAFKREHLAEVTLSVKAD

Fold change to WT CD80 (CD28 (human) [1]): 23.3 fold
MFI at 33.3 nM (CD28 (human) [1]): 962 MFI
MFI at 33.3 nM (human CTLA-4 (human) [2]): 22000 MFI
Fold change to WT CD80 (PD-L1 (human) [3]): 131 fold
MFI at 33.3 nM (PD-L1 (human) [3]): 9280 MFI
Substance: CD80 IgV-Fc H18Y/E35D/V68M/L85M/R94Q (Fc fusion)

MFI (CD28 (human) [4]): 8 MFI
Substance: CD80 K36E/I67T/L70Q/A91G/I118V/T120S/T130A/N152T ECD-Fc (Fc fusion)

MFI (human CTLA-4 (human) [5]): 131 MFI
parental ratio (human CTLA-4 (human) [5]): 0.63
MFI (CD28 (human) [4]): 68 MFI
parental ratio (CD28 (human) [4]): 0.71
MFI (PD-L1 (human) [6]): 5 MFI
parental ratio (PD-L1 (human) [6]): 0.08
Substance: CD80 K54M/L70Q/A91G/Y164H ECD-Fc (SEQ ID NO 1399) (Fc fusion)

MFI (human CTLA-4 (human) [5]): 121 MFI
MFI (CD28 (human) [4]): 33 MFI
Substance: CD80 L65H/D90G/T110A/F116L ECD-Fc (Fc fusion)

MFI (CD28 (human) [4]): 61 MFI
Substance: CD80 M38T/L70Q/E77G/A91G/I118V/T120S/T130A/N152T ECD-Fc (Fc fusion)

MFI (CD28 (human) [4]): 5 MFI
Substance: CD80 M38V/T41D/M43I/W50G/D76G/V83A/K89E/I118V/T120S/I126V/T130A ECD-Fc (Fc fusion)

MFI (human CTLA-4 (human) [5]): 141 MFI
MFI (CD28 (human) [4]): 66 MFI
Substance: CD80 R29H/E52G/D90N/I118V/T120S/T130A ECD-Fc (Fc fusion)

MFI (human CTLA-4 (human) [5]): 119 MFI
parental ratio (human CTLA-4 (human) [5]): 0.57
MFI (CD28 (human) [4]): 100 MFI
MFI (PD-L1 (human) [6]): 5 MFI
parental ratio (PD-L1 (human) [6]): 0.08
Substance: CD80 R29H/E52G/L70R/E88G/A91G/T130A ECD-Fc (Fc fusion)

MFI (human CTLA-4 (human) [5]): 65 MFI
parental ratio (human CTLA-4 (human) [5]): 0.31
MFI (CD28 (human) [4]): 32 MFI
parental ratio (CD28 (human) [4]): 0.34
MFI (PD-L1 (human) [6]): 6 MFI
parental ratio (PD-L1 (human) [6]): 0.08
Substance: CD80 T28S/L70Q/A91G/E95K/I118V/T120S/I126V/T130A/K169E ECD-Fc (Fc fusion)

MFI (human CTLA-4 (human) [5]): 200 MFI
parental ratio (human CTLA-4 (human) [5]): 0.96
MFI (CD28 (human) [4]): 105 MFI
MFI (PD-L1 (human) [6]): 9 MFI
parental ratio (PD-L1 (human) [6]): 0.13
Substance: CD80 V20L/L70Q/A91S/I118V/T120S/T130A ECD-Fc (Fc fusion)

MFI at 33.3 nM (PD-L1 (human) [7]): 83 MFI
MFI at 33.3 nM (CD28 (human) [1]): 41.2 MFI
MFI at 33.3 nM (human CTLA-4 (human) [8]): 1030 MFI
MFI at 33.3 nM [9]: 66 MFI
MFI at 33.3 nM [10]: 70.3 MFI
MFI at 33.3 nM (PD-L1 (human) [11]): 43.6 MFI
MFI at 33.3 nM (CD28 (human) [12]): 95 MFI
MFI at 33.3 nM (CD28 (human) [12]; record 2): 41 MFI
MFI at 33.3 nM (human CTLA-4 (human) [13]): 26400 MFI
MFI at 33.3 nM (human CTLA-4 (human) [2]): 1040 MFI
MFI at 33.3 nM (PD-L1 (human) [3]): 70.9 MFI
MFI at 33.3 nM [14]: 1920 MFI
MFI at 33.3 nM (human CTLA-4 (human) [15]): 1360 MFI
MFI at 33.3 nM (CD28 (human) [16]): 43.9 MFI
MFI at 33.3 nM (PD-L1 (human) [17]): 44 MFI
Substance: CD80 WT IgV-Fc (Fc fusion)

Jurkat/IL2 reporter RLU at 50 nM, K562/OKT3/PD-L1 aAPC (CD28 (human) [18]): 663 RLU
Jurkat/IL2 reporter RLU at 50 nM, K562/OKT3 aAPC without PD-L1 (CD28 (human) [18]): 1250 RLU
Jurkat/IL2 reporter RLU at 50 nM, K562/OKT3/PD-L1 aAPC (PD-L1 (human) [19]): 663 RLU
Substance: WT CD80 IgV-Fc (Fc fusion)

MFI at 33.3 nM (human CTLA-4 (human) [20]): 2950 MFI
MFI at 33.3 nM (CD28 (human) [21]): 314 MFI
Substance: variant CD80 IgV-Fc A26E/E35D/M43I/M47L/L85Q/K86E/R94W (Fc fusion)

IL-2 luciferase reporter, fold increase over WT CD80-IgV-Fc at 5.0 nM (CD28 (human) [22]): 2.34 fold
IL-2 luciferase reporter, fold increase over WT CD80-IgV-Fc at 5.0 nM (PD-L1 (human) [23]): 2.34 fold
Fold change to WT CD80 (PD-L1 (human) [11]): 608 fold
MFI at 33.3 nM (PD-L1 (human) [11]): 26500 MFI
Ratio of PDL1:CD28 (PD-L1 (human) [24]): 12.6
Fold change to WT CD80 (human CTLA-4 (human) [15]): 17.1 fold
MFI at 33.3 nM (human CTLA-4 (human) [15]): 23300 MFI
Fold change to WT CD80 (CD28 (human) [16]): 47.9 fold
MFI at 33.3 nM (CD28 (human) [16]): 2100 MFI
Substance: variant CD80 IgV-Fc A26E/E35D/V68M/A71G/D90G (Fc fusion)

MFI at 33.3 nM (CD28 (human) [21]): 7540 MFI
Substance: variant CD80 IgV-Fc E35D/D46V/M47I/A71G/F92V (Fc fusion)

MFI at 33.3 nM (human CTLA-4 (human) [20]): 226000 MFI
MFI at 33.3 nM (CD28 (human) [21]): 300 MFI
Substance: variant CD80 IgV-Fc E35D/M47L/A71G/L97Q (Fc fusion)

IL-2 luciferase reporter, fold increase over WT CD80-IgV-Fc at 5.0 nM (CD28 (human) [22]): 2.45 fold
IL-2 luciferase reporter, fold increase over WT CD80-IgV-Fc at 5.0 nM (PD-L1 (human) [23]): 2.45 fold
Fold change to WT CD80 (PD-L1 (human) [11]): 340 fold
MFI at 33.3 nM (PD-L1 (human) [11]): 14800 MFI
Ratio of PDL1:CD28 (PD-L1 (human) [24]): 13.8
Fold change to WT CD80 (human CTLA-4 (human) [15]): -0.1 fold
MFI at 33.3 nM (human CTLA-4 (human) [15]): -100 MFI
Fold change to WT CD80 (CD28 (human) [16]): 24.5 fold
MFI at 33.3 nM (CD28 (human) [16]): 1080 MFI
Substance: variant CD80 IgV-Fc H18Y/A26E/E35D/A71G/D90G (Fc fusion)

MFI at 33.3 nM (human CTLA-4 (human) [20]): 3560 MFI
MFI at 33.3 nM (CD28 (human) [21]): 303 MFI
Substance: variant CD80 IgV-Fc Q33R/E35D/D46E/M47I (Fc fusion)

MFI at 33.3 nM (CD28 (human) [21]): 266 MFI
Substance: variant CD80 IgV-Fc S15P/Q33L/E35D/M47L/L85Q (Fc fusion)

Source: patent US20220177587A1, “METHODS AND USES OF VARIANT CD80 FUSION PROTEINS AND RELATED CONSTRUCTS” (Alpine Immune Sciences, Inc., priority 2018, published 2022)
